T1: SE (SERRATE) (Arabidopsis thaliana)
T1 sequence (Q9ZVD0 1-720, looked up): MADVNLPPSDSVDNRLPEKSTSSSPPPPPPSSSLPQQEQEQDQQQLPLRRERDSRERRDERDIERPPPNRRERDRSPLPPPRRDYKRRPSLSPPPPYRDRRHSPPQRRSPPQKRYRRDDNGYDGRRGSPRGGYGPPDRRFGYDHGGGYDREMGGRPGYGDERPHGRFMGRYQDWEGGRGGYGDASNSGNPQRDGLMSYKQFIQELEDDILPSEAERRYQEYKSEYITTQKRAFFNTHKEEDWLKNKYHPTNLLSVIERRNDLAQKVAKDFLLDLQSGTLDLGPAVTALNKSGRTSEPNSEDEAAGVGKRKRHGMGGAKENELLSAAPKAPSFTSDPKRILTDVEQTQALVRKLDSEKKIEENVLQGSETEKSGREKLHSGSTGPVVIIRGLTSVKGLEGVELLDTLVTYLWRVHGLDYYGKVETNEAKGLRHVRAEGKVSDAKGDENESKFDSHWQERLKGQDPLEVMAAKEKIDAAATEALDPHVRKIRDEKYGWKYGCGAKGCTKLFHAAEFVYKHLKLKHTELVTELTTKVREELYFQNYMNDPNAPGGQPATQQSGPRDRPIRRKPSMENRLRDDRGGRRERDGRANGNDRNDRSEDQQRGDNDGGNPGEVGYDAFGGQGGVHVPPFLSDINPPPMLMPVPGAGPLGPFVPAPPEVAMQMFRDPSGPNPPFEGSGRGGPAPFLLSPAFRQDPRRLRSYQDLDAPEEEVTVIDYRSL

T2: TAF14B, GAS41 (Arabidopsis thaliana)
T2 sequence (Q9FH40 1-268, looked up): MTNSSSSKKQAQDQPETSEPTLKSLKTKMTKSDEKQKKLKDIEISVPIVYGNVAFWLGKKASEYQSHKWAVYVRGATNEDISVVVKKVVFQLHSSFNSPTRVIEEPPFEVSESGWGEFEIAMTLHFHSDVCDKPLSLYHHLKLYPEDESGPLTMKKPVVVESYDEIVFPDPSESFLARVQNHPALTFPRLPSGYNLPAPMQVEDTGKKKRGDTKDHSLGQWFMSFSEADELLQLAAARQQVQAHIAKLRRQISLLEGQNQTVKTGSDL

T3: actin-related protein 7 (ARP7) (Arabidopsis thaliana)
T3 sequence (Q8L4Y5 1-363, looked up): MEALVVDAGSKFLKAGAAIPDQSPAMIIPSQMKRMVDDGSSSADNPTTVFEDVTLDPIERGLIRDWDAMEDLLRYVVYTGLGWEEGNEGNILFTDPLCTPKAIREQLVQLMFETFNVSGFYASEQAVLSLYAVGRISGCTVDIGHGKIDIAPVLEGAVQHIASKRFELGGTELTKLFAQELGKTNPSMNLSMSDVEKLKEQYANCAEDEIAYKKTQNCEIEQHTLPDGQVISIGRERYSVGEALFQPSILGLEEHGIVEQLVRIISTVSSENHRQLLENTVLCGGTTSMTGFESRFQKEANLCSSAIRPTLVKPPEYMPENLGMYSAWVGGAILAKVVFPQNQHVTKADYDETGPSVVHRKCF

T4: actin-related protein 4 (ARP4) (Arabidopsis thaliana)
T4 sequence (Q84M92 1-441, looked up): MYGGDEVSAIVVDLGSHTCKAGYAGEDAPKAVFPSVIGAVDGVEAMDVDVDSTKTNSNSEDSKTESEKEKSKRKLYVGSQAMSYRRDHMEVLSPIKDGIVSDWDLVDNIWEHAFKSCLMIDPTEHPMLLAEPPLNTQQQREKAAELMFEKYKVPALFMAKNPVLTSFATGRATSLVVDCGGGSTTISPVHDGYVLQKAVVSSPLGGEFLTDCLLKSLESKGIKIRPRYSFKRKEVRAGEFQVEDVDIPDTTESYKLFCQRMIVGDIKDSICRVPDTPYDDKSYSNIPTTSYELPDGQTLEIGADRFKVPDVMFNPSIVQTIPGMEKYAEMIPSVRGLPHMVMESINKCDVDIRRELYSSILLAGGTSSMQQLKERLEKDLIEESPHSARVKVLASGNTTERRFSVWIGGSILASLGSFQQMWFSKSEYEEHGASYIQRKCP


Experiments:
Assay in all cases: TAP-MS, N-terminal GS tag
[1] = target: protein coding (AT5G14240) (Arabidopsis thaliana)
[2] = target: PHD finger protein (AT1G54390) (Arabidopsis thaliana)
[3] = target: T1, SE (SERRATE) (Arabidopsis thaliana)
[4] = target: T2, TAF14B, GAS41 (Arabidopsis thaliana)
[5] = target: chaperonin (AT5G26360) (Arabidopsis thaliana)
[6] = target: T3, actin-related protein 7 (ARP7) (Arabidopsis thaliana)
[7] = target: chaperonin, similar to At3g03960 (AT3G18190) (Arabidopsis thaliana)
[8] = target: TCP-1 (Arabidopsis thaliana T-complex protein 1 alpha subunit) (Arabidopsis thaliana)
[9] = target: chaperonin (AT3G02530) (Arabidopsis thaliana)
[10] = target: unknown, similar to At5g55210 (AT4G22320) (Arabidopsis thaliana)
[11] = target: chaperonin, similar to At3g18190 (AT3G03960) (Arabidopsis thaliana)
[12] = target: T4, actin-related protein 4 (ARP4) (Arabidopsis thaliana)

Chain of TCP-1 (Arabidopsis thaliana T-complex protein 1 alpha subunit) (Arabidopsis thaliana) (P28769 2-545, one chain of several): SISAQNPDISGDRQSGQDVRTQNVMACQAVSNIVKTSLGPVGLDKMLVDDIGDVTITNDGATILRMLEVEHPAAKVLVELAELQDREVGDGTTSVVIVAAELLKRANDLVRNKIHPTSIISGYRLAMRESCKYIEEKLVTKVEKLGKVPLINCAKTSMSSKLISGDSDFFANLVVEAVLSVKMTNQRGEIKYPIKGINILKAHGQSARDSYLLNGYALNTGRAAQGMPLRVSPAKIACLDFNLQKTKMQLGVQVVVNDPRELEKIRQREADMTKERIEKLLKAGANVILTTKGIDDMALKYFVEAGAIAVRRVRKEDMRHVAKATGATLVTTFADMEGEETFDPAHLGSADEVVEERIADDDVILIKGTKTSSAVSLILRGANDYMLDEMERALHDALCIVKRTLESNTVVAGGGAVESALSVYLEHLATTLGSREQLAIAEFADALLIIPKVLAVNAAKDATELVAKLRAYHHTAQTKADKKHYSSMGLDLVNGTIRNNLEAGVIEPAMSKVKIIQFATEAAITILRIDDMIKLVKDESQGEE

N-GS (times co-purified) [1] | N-GS (times co-purified) [2] | N-GS (times co-purified) [3] | N-GS (times co-purified) [4] | N-GS (times co-purified) [5] | N-GS (times co-purified) [6] | N-GS (times co-purified) [7] | N-GS (times co-purified) [8] | N-GS (times co-purified) [9] | N-GS (times co-purified) [10] | N-GS (times co-purified) [11] | N-GS (times co-purified) [12] | Binder
2 | 1 | 1 | 2 | 2 | 2 |  |  |  |  |  |  | GS-ARP4 (protein, UniProt Q84M92 1-441, looked up, N-terminal GS tag) Actin-related protein 4: MYGGDEVSAIVVDLGSHTCKAGYAGEDAPKAVFPSVIGAVDGVEAMDVDVDSTKTNSNSEDSKTESEKEKSKRKLYVGSQAMSYRRDHMEVLSPIKDGIVSDWDLVDNIWEHAFKSCLMIDPTEHPMLLAEPPLNTQQQREKAAELMFEKYKVPALFMAKNPVLTSFATGRATSLVVDCGGGSTTISPVHDGYVLQKAVVSSPLGGEFLTDCLLKSLESKGIKIRPRYSFKRKEVRAGEFQVEDVDIPDTTESYKLFCQRMIVGDIKDSICRVPDTPYDDKSYSNIPTTSYELPDGQTLEIGADRFKVPDVMFNPSIVQTIPGMEKYAEMIPSVRGLPHMVMESINKCDVDIRRELYSSILLAGGTSSMQQLKERLEKDLIEESPHSARVKVLASGNTTERRFSVWIGGSILASLGSFQQMWFSKSEYEEHGASYIQRKCP
2 |  |  |  | 2 |  | 2 | 2 | 2 | 2 | 2 | 1 | GS-ARP7 (protein, UniProt Q8L4Y5 1-363, looked up, N-terminal GS tag) Actin-related protein 7: MEALVVDAGSKFLKAGAAIPDQSPAMIIPSQMKRMVDDGSSSADNPTTVFEDVTLDPIERGLIRDWDAMEDLLRYVVYTGLGWEEGNEGNILFTDPLCTPKAIREQLVQLMFETFNVSGFYASEQAVLSLYAVGRISGCTVDIGHGKIDIAPVLEGAVQHIASKRFELGGTELTKLFAQELGKTNPSMNLSMSDVEKLKEQYANCAEDEIAYKKTQNCEIEQHTLPDGQVISIGRERYSVGEALFQPSILGLEEHGIVEQLVRIISTVSSENHRQLLENTVLCGGTTSMTGFESRFQKEANLCSSAIRPTLVKPPEYMPENLGMYSAWVGGAILAKVVFPQNQHVTKADYDETGPSVVHRKCF

From patent US20120324602A1
